Assay results as given in PMC2953525, “Subtle Alterations in PCNA-Partner Interactions Severely Impair DNA Replication and Repair” (PLoS Biology, 2010).
Changes are numbered by the printed parent chain. Values belong to the binder of their own block, whether it stands above or below them. Where no end group is shown, it is not given here.

What was measured:
[1] = target: T1, pol30-Rad30E9, 6×Histidine-tagged (yeast, UniProt P15873 1-258, IDCL DIDADFLKIEEL to DNDWDFLKIDEL); assay: SPR; ProteOn XPR36; WT or mutant PCNA (0.4 to 5.2 fmol) immobilised on a GLM chip by carbodiimide-activated succinimide coupling; PIP peptides 5–5,000 nM at 30 µl/min; peptide buffer 150 mM NaCl, 1 mM EDTA, 0.01% Tween-80, 30 mM Hepes, pH 7.5; conditions: both partners purified
T1 construct: PCNA (POL30), yeast, in pET28; also called Pol30-Rad30E9p; source: E. coli BL21, in cleared crude lysate (ELISA); purified by Ni-NTA (SPR)
T1 sequence: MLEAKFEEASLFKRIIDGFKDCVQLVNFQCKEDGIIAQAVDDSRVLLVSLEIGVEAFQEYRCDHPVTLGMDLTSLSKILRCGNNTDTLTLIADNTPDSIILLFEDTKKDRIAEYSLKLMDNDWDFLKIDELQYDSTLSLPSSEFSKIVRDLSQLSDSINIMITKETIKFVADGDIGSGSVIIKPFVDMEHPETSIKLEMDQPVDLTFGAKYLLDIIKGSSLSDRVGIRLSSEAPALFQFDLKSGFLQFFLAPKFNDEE

[2] = target: T2, pol30-Pol32E9, 6×Histidine-tagged (yeast, UniProt P15873 1-258, IDCL DIDADFLKIEEL to DNDVDSLKIIEL); assay: as above; conditions: both partners purified
T2 construct: PCNA (POL30), yeast, in pET28; source: E. coli BL21, in cleared crude lysate (ELISA); purified by Ni-NTA (SPR)
T2 sequence: T1 sequence with W123V, F125S, D129I

pol30-79 = target: T3, pol30-79 (yeast, UniProt P15873 1-258, IDCL DIDADFLKIEEL to DIDADFAKAEEL); assay: two-hybrid; quantitative Y2H: generation time of the YRG2 strains in liquid SC-Leu-Trp-His, given relative to cells expressing WT PCNA; average of at least 3 experiments; conditions: partners not purified
T3 construct: PCNA (POL30), yeast; the changes are then L126A and I128A; also called PCNA79; source: yeast two-hybrid fusion (pAD-GAL4, strain YRG2)
T3 sequence: T1 sequence with N121I, W123A, L126A, I128A, D129E

pol30-Pol32E9 = target: T4, pol30-Pol32E9 (yeast, UniProt P15873 1-258, IDCL DIDADFLKIEEL to DNDVDSLKIIEL); assay: as above; conditions: partners not purified
T4 construct: PCNA (POL30), yeast; source: yeast two-hybrid fusion (pAD-GAL4, strain YRG2)
T4 sequence: T1 sequence with W123V, F125S, D129I

pol30-Rad30E2 = target: T5, pol30-Rad30E2 (yeast, UniProt P15873 1-258, IDCL DIDADFLKIEEL to DDDWDFLKILEL); assay: as above; conditions: partners not purified
T5 construct: PCNA (POL30), yeast; source: yeast two-hybrid fusion (pAD-GAL4, strain YRG2)
T5 sequence: T1 sequence with N121D, D129L

pol30-Pol32E5 = target: T6, pol30-Pol32E5 (yeast, UniProt P15873 1-258, IDCL DIDADFLKIEEL to DADNDFLKISEL); assay: as above; conditions: partners not purified
T6 construct: PCNA (POL30), yeast; source: yeast two-hybrid fusion (pAD-GAL4, strain YRG2)
T6 sequence: T1 sequence with N121A, W123N, D129S

pol30-Msh6E2 = target: T7, pol30-Msh6E2 (yeast, UniProt P15873 1-258, IDCL DIDADFLKIEEL to DYDRDMLKISEL); assay: as above; conditions: partners not purified
T7 construct: PCNA (POL30), yeast; source: yeast two-hybrid fusion (pAD-GAL4, strain YRG2)
T7 sequence: T1 sequence with N121Y, W123R, F125M, D129S

pol30-Msh6E6 = target: T8, pol30-Msh6E6 (yeast, UniProt P15873 1-258, IDCL DIDADFLKIEEL to DYDKDLLKIIEL); assay: as above; conditions: partners not purified
T8 construct: PCNA (POL30), yeast; source: yeast two-hybrid fusion (pAD-GAL4, strain YRG2)
T8 sequence: T1 sequence with N121Y, W123K, F125L, D129I

pol30-Ung1E3 = target: T9, pol30-Ung1E3 (yeast, UniProt P15873 1-258, IDCL DIDADFLKIEEL to DFDYDELKIEEL); assay: as above; conditions: partners not purified
T9 construct: PCNA (POL30), yeast; source: yeast two-hybrid fusion (pAD-GAL4, strain YRG2)
T9 sequence: T1 sequence with N121F, W123Y, F125E, D129E

Binder: QKKQVTSSKNILSFFTRKK (also: biotinylated, site not given here) [PIP peptide derived from Rad30]
fold increase in binding affinity relative to WT PCNA (SPR) [1]: 8.5 fold

Binder: QGTLESFFKRKAK (also: biotinylated, site not given here) [PIP peptide derived from Pol32]
fold increase in binding affinity relative to WT PCNA (SPR) [2]: 2 fold

B2: Msh6 (natural protein, yeast, UniProt Q03834 1-1242, looked up)
chain: MAPATPKTSKTAHFENGSTSSQKKMKQSSLLSFFSKQVPSGTPSKKVQKPTPATLENTATDKITKNPQGGKTGKLFVDVDEDNDLTIAEETVSTVRSDIMHSQEPQSDTMLNSNTTEPKSTTTDEDLSSSQSRRNHKRRVNYAESDDDDSDTTFTAKRKKGKVVDSESDEDEYLPDKNDGDEDDDIADDKEDIKGELAEDSGDDDDLISLAETTSKKKFSYNTSHSSSPFTRNISRDNSKKKSRPNQAPSRSYNPSHSQPSATSKSSKFNKQNEERYQWLVDERDAQRRPKSDPEYDPRTLYIPSSAWNKFTPFEKQYWEIKSKMWDCIVFFKKGKFFELYEKDALLANALFDLKIAGGGRANMQLAGIPEMSFEYWAAQFIQMGYKVAKVDQRESMLAKEMREGSKGIVKRELQCILTSGTLTDGDMLHSDLATFCLAIREEPGNFYNETQLDSSTIVQKLNTKIFGAAFIDTATGELQMLEFEDDSECTKLDTLMSQVRPMEVVMERNNLSTLANKIVKFNSAPNAIFNEVKAGEEFYDCDKTYAEIISSEYFSTEEDWPEVLKSYYDTGKKVGFSAFGGLLYYLKWLKLDKNLISMKNIKEYDFVKSQHSMVLDGITLQNLEIFSNSFDGSDKGTLFKLFNRAITPMGKRMMKKWLMHPLLRKNDIESRLDSVDSLLQDITLREQLEITFSKLPDLERMLARIHSRTIKVKDFEKVITAFETIIELQDSLKNNDLKGDVSKYISSFPEGLVEAVKSWTNAFERQKAINENIIVPQRGFDIEFDKSMDRIQELEDELMEILMTYRKQFKCSNIQYKDSGKEIYTIEIPISATKNVPSNWVQMAANKTYKRYYSDEVRALARSMAEAKEIHKTLEEDLKNRLCQKFDAHYNTIWMPTIQAISNIDCLLAITRTSEYLGAPSCRPTIVDEVDSKTNTQLNGFLKFKSLRHPCFNLGATTAKDFIPNDIELGKEQPRLGLLTGANAAGKSTILRMACIAVIMAQMGCYVPCESAVLTPIDRIMTRLGANDNIMQGKSTFFVELAETKKILDMATNRSLLVVDELGRGGSSSDGFAIAESVLHHVATHIQSLGFFATHYGTLASSFKHHPQVRPLKMSILVDEATRNVTFLYKMLEGQSEGSFGMHVASMCGISKEIIDNAQIAADNLEHTSRLVKERDLAANNLNGEVVSVPGGLQSDFVRIAYGDGLKNTKLGSGEGVLNYDWNIKRNVLKSLFSIIDDLQS
notes: Msh6 (mismatch repair), yeast; also called pBD-Msh6; source: yeast two-hybrid fusion (pBD-GAL4, strain YRG2)
fold change in affinity relative to WT PCNA (Y2H generation time) (pol30-79): 0.4 fold | fold change in affinity relative to WT PCNA (Y2H generation time) (pol30-Msh6E2): 1.4 fold | fold change in affinity relative to WT PCNA (Y2H generation time) (pol30-Msh6E6): 1.4 fold

More lines, now with the values ahead:

fold change in affinity relative to WT PCNA (Y2H generation time) (pol30-79): 0.3 fold | fold change in affinity relative to WT PCNA (Y2H generation time) (pol30-Pol32E9): 1.3 fold | fold change in affinity relative to WT PCNA (Y2H generation time) (pol30-Rad30E2): 0.4 fold | fold change in affinity relative to WT PCNA (Y2H generation time) (pol30-Pol32E5): 1.5 fold
B1: Pol32 (natural protein, yeast, UniProt P47110 1-350, looked up)
chain: MDQKASYFINEKLFTEVKPVLFTDLIHHLKIGPSMAKKLMFDYYKQTTNAKYNCVVICCYKDQTIKIIHDLSNIPQQDSIIDCFIYAFNPMDSFIPYYDIIDQKDCLTIKNSYELKVSESSKIIERTKTLEEKSKPLVRPTARSKTTPEETTGRKSKSKDMGLRSTALLAKMKKDRDDKETSRQNELRKRKEENLQKINKQNPEREAQMKELNNLFVEDDLDTEEVNGGSKPNSPKETDSNDKDKNNDDLEDLLETTAEDSLMDVPKIQQTKPSETEHSKEPKSEEEPSSFIDEDGYIVTKRPATSTPPRKPSPVVKRALSSSKKQETPSSNKRLKKQGTLESFFKRKAK
notes: Pol32 (DNA polymerase subunit), yeast; also called pBD-Pol32; source: yeast two-hybrid fusion (pBD-GAL4, strain YRG2)

fold change in affinity relative to WT PCNA (Y2H generation time) (pol30-79): 0.3 fold | fold change in affinity relative to WT PCNA (Y2H generation time) (pol30-Ung1E3): 1.3 fold
B3: Ung1 (natural protein, yeast, UniProt P12887 1-359, looked up)
chain: MWCMRRLPTNSVMTVARKRKQTTIEDFFGTKKSTNEAPNKKGKSGATFMTITNGAAIKTETKAVAKEANTDKYPANSNAKDVYSKNLSSNLRTLLSLELETIDDSWFPHLMDEFKKPYFVKLKQFVTKEQADHTVFPPAKDIYSWTRLTPFNKVKVVIIGQDPYHNFNQAHGLAFSVKPPTPAPPSLKNIYKELKQEYPDFVEDNKVGDLTHWASQGVLLLNTSLTVRAHNANSHSKHGWETFTKRVVQLLIQDREADGKSLVFLLWGNNAIKLVESLLGSTSVGSGSKYPNIMVMKSVHPSPLSASRGFFGTNHFKMINDWLYNTRGEKMIDWSVVPGTSLREVQEANARLESESKDP
notes: Ung1 (base excision repair), yeast; also called pBD-Ung1; source: yeast two-hybrid fusion (pBD-GAL4, strain YRG2)
